Data as given in article PMC3601739 (Chemical communications (Cambridge, England), 2013).

What was measured:
HIV-1 RRE IIB RNA [1] = experiment: Dot blot assay, 32P-labeled RRE IIB titrated with BPBAs; type: binding; settings: read-out: Kd (dissociation constant), 32P-labeled RRE IIB titrated with increasing concentration of peptide, average of at least three experiments
HIV-1 RRE IIB RNA [2] = experiment: Electrophoretic mobility shift assay; type: binding; settings: read-out: Kd (dissociation constant) determined through EMSA; EMSA with RRE IIB
BPBA3 (synthetic) [3] = experiment: EMSA; settings: not stated in the material (details in ESI)
BPBA1 (synthetic) [4] = experiment: EMSA; settings: not stated in the material (details in ESI)
BPBA2 (synthetic) [5] = experiment: EMSA; settings: not stated in the material (details in ESI)
BPBA7 (synthetic) = experiment: dot blot; settings: not stated in the material (details in ESI)
BPBA8 (synthetic) = experiment: dot blot; settings: not stated in the material (details in ESI)
BPBA6 (synthetic) = experiment: dot blot; settings: not stated in the material (details in ESI)
BPBA1.2 (synthetic) = experiment: dot blot; settings: not stated in the material (details in ESI)
BPBA4 (synthetic) = experiment: dot blot; settings: not stated in the material (details in ESI)
BPBA3 (synthetic) [6] = experiment: dot blot; settings: not stated in the material (details in ESI)
BPBA1 (synthetic) [7] = experiment: dot blot; settings: not stated in the material (details in ESI)
BPBA2 (synthetic) [8] = experiment: dot blot; settings: not stated in the material (details in ESI)
BPBA5 (synthetic) = experiment: dot blot; settings: not stated in the material (details in ESI)

With (KKKBBA)2 * FBPATSY [BPBA4] the Kd (HIV-1 RRE IIB RNA [1]) was 26.8 ± 4.4 µM.

(KKBBAF)2 * KKWY [BPBA5] showed a Kd (HIV-1 RRE IIB RNA [1]) of 27.2 ± 6.9 µM.

Work on (FBPAYFBPA)2 * NKSY [BPBA3] yielded a Kd (HIV-1 RRE IIB RNA [1]) of 8.7 ± 2.3 µM and a Kd (HIV-1 RRE IIB RNA [2]) of 4.6 ± 2.4 µM.

For (KBBAKFBPA)2 * KBBAKKY [BPBA2], the Kd (HIV-1 RRE IIB RNA [1]) was 3.3 ± 1.2 µM.

(KKBBAK)2 * KLKY [BPBA7] showed a Kd (HIV-1 RRE IIB RNA [1]) of 58.4 ± 4 µM.

With (KBBAYK)2 * HKKY [BPBA8] the Kd (HIV-1 RRE IIB RNA [1]) was 86.5 ± 10 µM.

(WKK)2 * KBBAYWY [BPBA1] gave a Kd (HIV-1 RRE IIB RNA [1]) of 1.4 ± 0.4 µM.

Substance HIV-1 RRE IIB RNA has a Kd (BPBA3 (synthetic) [3]) of 4.6 µM, a Kd (BPBA1 (synthetic) [4]) of 0.3 µM and a Kd (BPBA2 (synthetic) [5]) of 0.6 µM. It also gave a Kd (BPBA7 (synthetic)) of 58.4 µM, a Kd (BPBA8 (synthetic)) of 86.5 µM and a Kd (BPBA6 (synthetic)) of 28.5 µM. It also gave a Kd (BPBA1.2 (synthetic)) of 0.8 µM, a Kd (BPBA4 (synthetic)) of 26.8 µM and a Kd (BPBA3 (synthetic) [6]) of 8.7 µM. For the same substance, the Kd (BPBA1 (synthetic) [7]) was 1.4 µM, the Kd (BPBA2 (synthetic) [8]) was 3.3 µM and the Kd (BPBA5 (synthetic)) was 27.2 µM.
